The text below walks through data of patent US20230310621A1, “COMPLEXES FOR THE DELIVERY OF PROTEINACEOUS AGENTS” (priority 2020, published 2023).

A short description of data set [1]: Ultrafiltration of PAEC; particle recovery by light scattering, free SDS by HPLC-ELSD. It is filed as physicochemical. As to conditions: filtrate fraction of ultrafiltration. The method, then: The fraction of SDS under a free form, i.e. not associated to the PAECs, was determined on the following composition: P24/CpG/SDS/DA002: 200/80/200/350 μg/mL. This analysis was done after separation of the PAECs from free SDS, using ultrafiltration. The free SDS concentration in the permeate fraction was then determined by HPLC using an AZorbax 80A Extend-C18 column. 3.0×150 mm, 3.5 μm from Agilent and an Evaporative Light Scattering Detector (ELSD) Alltech® Model 3300.
Particle recovery has been estimated from the mean light scattering of the permeate fraction of ultrafiltration. The particle recovery percentage was measured as the mean and SD of light scattering count rate of 3 measurements; the SDS recovery percentage was measured as mean and SD of 2 HPLC analysis.

The nature of data set [2]: Circular dichroism, % helix in human insulin on storage at 4° C. The data set is classed as physicochemical. As to the method: From these CD spectra we have calculated the % of helix in human insulin overtime of storage at 4° C. on 12-day period. […] The CD spectra were taken […].
The CD analysis was carried out after storing the PAEC for 1, 6 or 12 days at 4° C.
(In general: CD spectra are sensitive to the conformation of chiral molecules.)

For the compound `CCCCCCCCCCCCOS(=O)(=O)[O-].[Na+]` [Free SDS, sodium dodecyl sulphate], in data set [1] (2 HPLC analysis), the “SDS recovery (wt %)” value is on record as 100.0 wt %. The “Particle recovery (Id %)” value in data set [1] (mean and SD of 3 measurements) amounted to 0.78 ± 0.07 Id %.

As to “Human Insulin: free human insulin, small globular protein, Mw 5808 Da”, in data set [2] (stored 1 day at 4° C.), the “percentage helix content in human insulin, Day 1” value worked out at 14.6%. Moreover, the “percentage helix content in human insulin, Day 6” value in data set [2] (stored 6 days at 4° C.) worked out at 37.4%. The “percentage helix content in human insulin, Day 12” value in data set [2] (stored 12 days at 4° C.) was 36.9%.
